Test results reported in publication PMC12871931, “The importin‐alpha superfamily engages in ethylene signaling by shuttling ETHYLENE INSENSITIVE 2 from the endoplasmic reticulum to the nucleus” (The Febs Journal, 2025).
Blank lines part the entries; values can stand above or below the binder they belong to.

Target: ΔIBB_IMPα1 (importin α1 lacking the IBB domain), Arabidopsis thaliana, recombinant (Arabidopsis thaliana)
Experiment: BLI; Octet K2; biotinylated ΔIBB_IMPα1 or IMPα4 loaded (15 μM, 600 s) on streptavidin biosensors; peptides/protein in solution; 100 mM Tris pH 7.0, 100 mM KCl, 0.01% Tween 20; room temperature; 300 s association, 300 s dissociation; dose response curves, 1:2 heterogeneous ligand model

Kd: 8.8 µM
B1: GB1‐AtEIN2C^1215–1281 (domain or fragment)
chain: KGKCTTAVTLLDLIKDVEMAISCRKGRTGTAAGDVAFPKGKENLASVLKRYKRRLSNKPVGMNQDGP

Kd: 2.5 µM
Binder: LKRYKRRL [NOP‐1 (EIN2 NLS peptide, EIN2 residues 1262–1269)]

Kd: 8.1 µM
Binder: KDVEMAISCRKGRTGTAAGDVAFPKGKENLASVLKRYKRRL [N41P‐1 (EIN2 residues 1229–1269)]
